Laboratory results published in patent US11473073B2, “Aminopeptidases for protein hydrolyzates” (DUPONT NUTRITION BIOSCIENCES APS, priority 2015, dated 2022).

Columns and labels:
Assay type in all cases: biochemical
[1] = system: gluten; experiment: Glutamic acid liberation in gluten hydrolyses (pH and temperature optimum)
Protocol: The liberation of glutamic acid is an important quality parameter in vegetable protein hydrolyses such as soy or gluten hydrolyses. The liberated glutamic acid can be perceived as the so-called “umami-flavor”. In order to determine the effect of the initially applied pH in gluten hydrolyses in terms of glutamic acid and glutamine liberation, the initial pH of a gluten hydrolyses was adjusted just after the liquefaction of the gluten after 15-30 min with 1 M HCl. Gluten was treated with Glutaminase (Amano, Japan). In addition, gluten was treated with FoodPro Alkaline Protease, FoodPro PNL as well as PepN 2 (Neosartorya fischeri). After 20 hr, the hydrolysis was terminated employing ultrafiltration (10 kDa cut-off, Sartorius Stedium Biotech, Göttingen, Germany). The permeate was applied for the enzymatic glutamic acid analyses (enzymatic L-glutamic acid analysis kit, Roche, Mannheim, Germany).
In order to determine the effect of the applied temperature during the gluten hydrolyses in terms of glutamic acid and glutamine liberation, the initial pH was adjusted with 1 M HCl to pH 7.0 just after the liquefaction of the gluten suspension after 15-30 min. Gluten was combined with Glutaminase (Amano, Japan). In addition, gluten was combined FOODPRO® Alkaline Protease, FOODPRO® PNL as well as PepN 2 (Neosartorya fischeri). […]

[2] = system: gluten; experiment: Degree of hydrolysis in gluten hydrolyses with and without 185 mM NaCl; parameters: Degree of hydrolysis: unit not given here; settings: for Degree of hydrolysis: Gluten, 50° C., 18 hr
Protocol: (§1) Sodium chloride is frequently applied in the food industry to reduce the microbial contamination risk in protein hydrolyses. Pre-hydrolysed 10% (w/w) soy (SUPRO® 760, DuPont, Brabrand, Denmark) and gluten (Sigma-Aldrich, Schnelldorf, Germany) was prepared by addition of 1% (w/wprotein) FOODPRO® Alkaline Protease (DuPont, Brabrand, Denmark) and 1% (w/wprotein) FOODPRO® PNL (DuPont, Brabrand, Denmark). The hydrolyses were performed at 50° C. at pH 7.0 (without pH control) for 18 hr (heat inactivation after 18 hr; 90° C.; 10 min). Subsequently, the hydrolyses were divided in sodium chloride containing (185 mM) and non-salt containing hydrolyses. 150 μL of each pre-hydrolysed protein suspension was combined with differently standardized Aspergillus clavatus PepN 2 as indicated in Table 3. The hydrolyses were conducted at 50° C. without pH control and terminated after 18 hr by addition of 20 μL of 2 M TCA. Prior to the determination of the DH (Nielsen, Petersen et al. 2001, infra), all samples were filtered 0.22 μm.

[3] = system: whey protein isolate (WPI); experiment: Degree of hydrolysis of WPI with endopeptidases plus PepN; settings: for Degree of hydrolysis: 50° C., 18 hr
Protocol: Enzyme activities of PepN 1 Lactobacillus helveticus ATCC® 12046, PepN 1 Aspergillus oryzae and from PepN 2 from Aspergillus clavatus (TRI035) were determined according to Stressler, Eisele et al. (2013, infra). PepN 1 from L. helveticus was expressed and purified as described by Stressler, Eisele et al. (2013, infra).
The PepN 1 and 2 aminopeptidases were standardized to the activity range of 2.5-200 nkat*mL^−1. For protein hydrolyses, 1% (w/wWPI) FOODPRO® Alkaline Protease (DuPont, Brabrand, Denmark) and 1% (w/wWPI) FOODPRO® PNL (DuPont, Brabrand, Denmark) were added to the whey protein isolate suspension (WPI; LACPRODAN® 9224, Arla Ingredients, Viby, Denmark) with an initial pH of 7.0. Following the endopeptidases addition, the WPI was mixed and 200 μL were transferred to each well of a 96-well microtiter plate. The hydrolysis was conducted at 50° C. without pH control and terminated after 18 hr by addition of 20 μL of 2 M TCA. Prior to the determination of the DH (Nielsen, Petersen et al., 2001, infra), all samples were filtered 0.22 μm.

[4] = system: soy; experiment: Degree of hydrolysis in soy hydrolyses with and without 185 mM NaCl; parameters: Degree of hydrolysis: unit not given here; settings: for Degree of hydrolysis: SOY, 50° C., 18 hr
Protocol: as §1

[5] = 185 mM NaCl, protein concentration 0.2 mg/mL
[6] = 185 mM NaCl, protein concentration 0.3 mg/mL
[7] = 185 mM NaCl, protein concentration 0.4 mg/mL
[8] = 185 mM NaCl, protein concentration 0.5 mg/mL
[9] = reference (no salt), protein concentration 0.2 mg/mL
[10] = reference (no salt), protein concentration 0.3 mg/mL
[11] = reference (no salt), protein concentration 0.4 mg/mL
[12] = reference (no salt), protein concentration 0.5 mg/mL

B1: TRI031: fungal aminopeptidase type-2 (pepN_2), NCBI XP_001258675 from Neosartorya fischeri NRRL 181, expressed in Trichoderma reesei (protein)
chain: MQTFGAFLVSFLAASGLAAANGPGWDWKPPVHPKVLPQMIHLWDLMHGAQKLEDFAYAYPERNRVFGGPAHEDTVNYLYRELKKTGYYDVYKQPQVHQWTRADQALTVDGKSYVATTMTYSPSVNVTAPLAVVNNLGCVESDYPADLKGKIALVSRGECPFATKSVLSAKAGAAAALVYNNIEGSMAGTLGGPTSELGPYAPIAGISLADGQALIQMIQAGTVTANLWIDSKVENRTTYNVIAQTKGGDPNNVVALGGHTDSVEAGPGINDDGSGIISNLVVAKALTRFSVKNAVRFCFWTAEEFGLLGSSYYVNSLNATEKAKIRLYLNFDMIASPNYALMIYDGDGSAFNLTGPAGSAQIERLFEDYYKSIRKPFVPTEFNGRSDYEAFILNGIPAGGIFTGAEAIKTEEQAKLFGGQAGVALDANYHAKGDNMTNLNREAFLINSKATAFAVATYANSLDSIPSRNMSTVVKRSQLEQAKKSTPHTHTGGTGCYKDRVEQ
modifications: Synthetic peptide with leader sequence
notes: fungal aminopeptidase type-2 (pepN_2), NCBI XP_001258675 from Neosartorya fischeri NRRL 181, expressed in Trichoderma reesei
- temperature at which PepN 2 performed most efficient (glutamic acid liberation) ([1]; gluten hydrolysis 20 h, initial pH 7.0, range 40-60° C., FIG. 3): 60 °C
- pH range in which PepN 2 performed more efficient (glutamic acid liberation) ([1]; gluten hydrolysis 20 hr with Glutaminase, FoodPro Alkaline Protease, FoodPro PNL, compared to pH 6.0, FIG. 2): 7.0-9.0

B2: TRI035: fungal aminopeptidase type-2 (pepN_2), NCBI XP_001273779 from Aspergillus clavatus NRRL 1 (protein)
chain: MQTFGAFLVSFLAASGLAAANAPGGPGGHGRKLPVNPKTFPNEIRLKDLLHGSQKLEDFAYAYPERNRVFGGQAHLDTVNYLYRELKKTGYYDVYKQPQVHQWTRADQSLTLGGDSIQASTMTYSPSVNVTAPLSLVSKLGCAEGDYSADVKGKIALVSRGECSFAQKSVLSAKAGAVATIVYNNVDGSLAGTLGGATSELGPYSPIIGITLAAGQDLVARLQAAPTEVSLWIDSKVENRTTYNVIAQTKGGDPNNVVALGGHTDSVENGPGINDDGSGVISNLVVAKALTRYSVKNAVRFCFWTAEEFGLLGSNYYVDNLSPAELAKIRLYLNFDMIASPNYALMIYDGDGSAFNLTGPPGSAQIESLFENYYKSIKQGFVPTAFDGRSDYEGFILKGIPAGGVFTGAESLKTEEQARLFGGQAGVALDANYHAKGDNMTNLNHKAFLINSRATAFAVATYANNLSSIPPRNATVVKRESMKWTKREEPHTHGADTGCFASRVKE
modifications: Synthetic peptide with leader sequence
- Degree of hydrolysis ([2]; 185 mM NaCl, protein concentration 0.1 mg/mL): 14
- Degree of hydrolysis [2, 5]: 15
- Degree of hydrolysis ([2]; 185 mM NaCl, protein concentration 0.25 mg/mL): 15
- Degree of hydrolysis [2, 6]: 16
- Degree of hydrolysis [2, 7]: 17
- Degree of hydrolysis [2, 8]: 18
- Degree of hydrolysis ([2]; reference (no salt), protein concentration 0.1 mg/mL): 14
- Degree of hydrolysis [2, 9]: 16
- Degree of hydrolysis ([2]; reference (no salt), protein concentration 0.25 mg/mL): 17
- Degree of hydrolysis [2, 10]: 16
- Degree of hydrolysis [2, 11]: 17
- Degree of hydrolysis [2, 12]: 18
- influence of 185 mM NaCl on the determined degree of hydrolysis ([2]; gluten hydrolyses): no influence
- Degree of hydrolysis ([3]; PepN dosage 2.5 nkat/mL in stock solution): 15%
- Degree of hydrolysis ([3]; PepN dosage 5 nkat/mL in stock solution): 17%
- Degree of hydrolysis ([3]; PepN dosage 10 nkat/mL in stock solution): 17%
- Degree of hydrolysis ([3]; PepN dosage 25 nkat/mL in stock solution): 20%
- Degree of hydrolysis ([3]; PepN dosage 50 nkat/mL in stock solution): 24%
- Degree of hydrolysis ([3]; PepN dosage 75 nkat/mL in stock solution): 26%
- Degree of hydrolysis ([3]; PepN dosage 100 nkat/mL in stock solution): 35%
- Degree of hydrolysis ([3]; PepN dosage 200 nkat/mL in stock solution): 36%
- higher DH than the PepN 1 aminopeptidases ([3]; at the two highest dosages): at least 25%
- Degree of hydrolysis [4, 5]: 10
- Degree of hydrolysis [4, 6]: 11
- Degree of hydrolysis [4, 7]: 11
- Degree of hydrolysis [4, 8]: 12
- Degree of hydrolysis [4, 9]: 11
- Degree of hydrolysis [4, 10]: 12
- Degree of hydrolysis [4, 11]: 12
- Degree of hydrolysis [4, 12]: 12
- influence of 185 mM NaCl on the determined degree of hydrolysis ([4]; soy hydrolyses): no influence
